Test results from patent US20040167319A1 (Genmab, published 2004).
Changes are numbered by the printed parent chain. Bridges are numbered along the chain shown (N, C = ends). Where no end group is shown, it is not given here. minicard = not defined here

B1: 11B8 (antibody, IgG3, V domains shown)
VH: EVQLVQSGGGLVHPGGSLRLSCTGSGFTFSYHAMHWVRQAPGKGLEWVSIIGTGGVTYYADSVKGRFTISRDNVKNSLYLQMNSLRAEDMAVYYCARDYYGAGSFYDGLYGMDVWGQGTTVTVSS
VL: EIVLTQSPATLSLSPGERATLSCRASQSVSSYLAWYQQKPGQAPRLLIYDASNRATGIPARFSGSGSGTDFTLTISSLEPEDFAVYYCQQRSDWPLTFGGGTKVEIK
notes: Human monoclonal IgG3,κ from hybridoma
B2: 7D8 (antibody, IgG1, V domains shown)
VH: EVQLVESGGGLVQPDRSLRLSCAASGFTFHDYAMHWVRQAPGKGLEWVSTISWNSGTIGYADSVKGRFTISRDNAKNSLYLQMNSLRAEDTALYYCAKDIQYGNYYYGMDVWGQGTTVTVSS
VL: B1 VL with D93N, L96I, G100Q, K103R, V104L
notes: Human monoclonal IgG1,κ from hybridoma
B3: 2F2 (antibody, V domains shown)
VH: B2 VH with D15G, H30N, T57S, N77K
VL: B1 VL with D93N, L96I, G100Q, K103R, V104L
modifications: FITC- or 125I-labelled in some assays; F(ab')2 fragments in some; the letters do not carry this
notes: Human monoclonal IgG1,κ from hybridoma; also called 4C9; HuMab 2F2 (hybridoma-derived)

Biological target: T1, GIYAPIA (also: covalently linked to polyethylene card)
T1 construct: 7-mer Pepscan peptide derived from human CD20 (A in place of the C of GIYAPIC)
T1 peptide: GIYAPIA
Assay: Pepscan ELISA, 100 µg/ml
Description: (§1) In some cases chemical linkage of the legs of a 15-mer peptide helps to identify amino acid sequences of a potentially discontinuous epitope. […] The 9- and 15-mers were synthesized as loops and screened using credit-card format mini-PEPSCAN cards (455 peptide format/card). In all looped peptides amino acids at varied positions were replaced by a cysteine (e.g., acetyl-XCXXXXXXXXCX-minicard). The peptides were synthesized using standard Fmoc-chemistry and deprotected using TFA with scavengers. Subsequently, the deprotected peptides were reacted on the microarray with an 0.5 mM solution of 1,3-bis(bromomethyl)-benzene in ammonium bicarbonate (20 mM, pH 7.9), supplemented with acetonitrile (1:1 (v/v)). The microarrays were gently shaken in the solution for 30-60 min, while completely covered in the solution. Finally, the microarrays were washed extensively with excess of Millipore H₂O and sonicated in disrupt-buffer containing 1% sodium dodecylsulfate, 0.1% β-mercaptoethanol, in PBS (pH 7.2) at 70° C. for 30 min, followed by sonication in millipore H₂O for another 45 min. Subsequently, the microwells were ready for screening in an ELISA-assay.
(§2) […] After washing, the peptides were incubated with anti-human antibody peroxidase (dilution 1:1000, 1 hour, 25° C.), and after washing the peroxidase substrate, 2,2′-azino-di-3-ethylbenzthiazolin sulfonate and 2 μl/ml 3% H₂O₂ were added. After one hour, the color development was measured. The color development of the ELISA was quantified with a CCD-camera and an image processing system.

Row | Binder | OD (absorbance)
1 | B1 | 857 OD
2 | B2 | 96 OD
3 | B3 | 96 OD

Biological target: T2, IYAPICV (also: covalently linked to polyethylene card)
T2 construct: 7-mer Pepscan peptide derived from human CD20
T2 peptide: IYAPICV
Assay: Pepscan ELISA, 100 µg/ml
Description: as §1, §2

Row | Binder | OD (absorbance)
4 | B1 | 313 OD
5 | B2 | 58 OD
6 | B3 | 99 OD

Biological target: T3, AGIYAPI (also: covalently linked to polyethylene card)
T3 construct: 7-mer Pepscan peptide derived from human CD20
T3 peptide: AGIYAPI
Assay: Pepscan ELISA, 100 µg/ml
Description: as §1, §2

Row | Binder | OD (absorbance)
7 | B1 | 2210 OD
8 | B2 | 73 OD
9 | B3 | 98 OD

Biological target: T4, GIYAPIC (also: covalently linked to polyethylene card)
T4 construct: 7-mer Pepscan peptide derived from human CD20
T4 peptide: GIYAPIC
Assay: Pepscan ELISA, 100 µg/ml
Description: as §1, §2

Row | Binder | OD (absorbance)
10 | B1 | 251 OD
11 | B2 | 64 OD
12 | B3 | 93 OD

Biological target: T5, CIRAHTPYC (linker 1-9 via 1,3‑bis(bromomethyl)‑benzene (inferred); not fully specified (C-terminus); also: covalently linked to minicard)
T5 construct: 9-mer looped Pepscan peptide derived from human CD20
T5 peptide: CIRAHTPYC
Assay: Pepscan ELISA, 100 µg/ml
Description: as §1, §2

Row | Binder | OD (absorbance)
13 | B1 | 449 OD
14 | B2 | 60 OD
15 | B3 | 92 OD

Biological target: T6, CFIRAHTPC (linker 1-9 via 1,3‑bis(bromomethyl)‑benzene (inferred); not fully specified (C-terminus); also: covalently linked to minicard)
T6 construct: 9-mer looped Pepscan peptide derived from human CD20
T6 peptide: CFIRAHTPC
Assay: Pepscan ELISA, 100 µg/ml
Description: as §1, §2

Row | Binder | OD (absorbance)
16 | B1 | 534 OD
17 | B2 | 69 OD
18 | B3 | 114 OD

Biological target: T7, CRAHTPYIC (linker 1-9 via 1,3‑bis(bromomethyl)‑benzene (inferred); not fully specified (C-terminus); also: covalently linked to minicard)
T7 construct: 9-mer looped Pepscan peptide derived from human CD20
T7 peptide: CRAHTPYIC
Assay: Pepscan ELISA, 100 µg/ml
Description: as §1, §2

Row | Binder | OD (absorbance)
19 | B1 | 1600 OD
20 | B2 | 64 OD
21 | B3 | 87 OD

Biological target: T8, LKMECLNFIRCHTPY (linker 5-11 via 1,3‑bis(bromomethyl)‑benzene (inferred); reading uncertain)
T8 construct: 15-mer looped Pepscan peptide derived from human CD20, Cys put in at two positions
T8 peptide: Ac-LKMECLNFIRCHTPY-minicard
Assay: Pepscan ELISA, 100 µg/ml
Description: as §1, §2

Row | Binder | OD (absorbance)
22 | B1 | 738 OD
23 | B2 | 41 OD
24 | B3 | 87 OD

Biological target: T9, MESLCFIRAHCPYIN (linker 5-11 via 1,3‑bis(bromomethyl)‑benzene (inferred); reading uncertain)
T9 construct: 15-mer looped Pepscan peptide derived from human CD20, Cys put in at two positions
T9 peptide: Ac-MESLCFIRAHCPYIN-minicard
Assay: Pepscan ELISA, 100 µg/ml
Description: as §1, §2

Row | Binder | OD (absorbance)
25 | B1 | 956 OD
26 | B2 | 55 OD
27 | B3 | 65 OD

Biological target: T10, CAHTPYINC (linker 1-9 via 1,3‑bis(bromomethyl)‑benzene (inferred); not fully specified (C-terminus); also: covalently linked to minicard)
T10 construct: 9-mer looped Pepscan peptide derived from human CD20
T10 peptide: CAHTPYINC
Assay: Pepscan ELISA, 100 µg/ml
Description: as §1, §2

Row | Binder | OD (absorbance)
28 | B1 | 452 OD
29 | B2 | 65 OD
30 | B3 | 106 OD

Biological target: T11, IYAPIAV (also: covalently linked to polyethylene card)
T11 construct: 7-mer Pepscan peptide derived from human CD20 (A in place of the C of IYAPICV)
T11 peptide: IYAPIAV
Assay: Pepscan ELISA, 100 µg/ml
Description: as §1, §2

Row | Binder | OD (absorbance)
31 | B1 | 654 OD
32 | B2 | 58 OD
33 | B3 | 76 OD

Biological target: T12, KMESCNFIRACTPYI (linker 5-11 via 1,3‑bis(bromomethyl)‑benzene (inferred); reading uncertain)
T12 construct: 15-mer looped Pepscan peptide derived from human CD20, Cys put in at two positions
T12 peptide: Ac-KMESCNFIRACTPYI-minicard
Assay: Pepscan ELISA, 100 µg/ml
Description: as §1, §2

Row | Binder | OD (absorbance)
34 | B1 | 3090 OD
35 | B2 | 52 OD
36 | B3 | 78 OD

Biological target: T13, KMECLNFIRAHCPYI (linker 4-12 via 1,3‑bis(bromomethyl)‑benzene (inferred); reading uncertain)
T13 construct: 15-mer looped Pepscan peptide derived from human CD20, Cys put in at two positions
T13 peptide: Ac-KMECLNFIRAHCPYI-minicard
Assay: Pepscan ELISA, 100 µg/ml
Description: as §1, §2

Row | Binder | OD (absorbance)
37 | B1 | 3000 OD
38 | B2 | 41 OD
39 | B3 | 66 OD

Biological target: T14, PAGIYAP (also: covalently linked to polyethylene card)
T14 construct: 7-mer Pepscan peptide derived from human CD20
T14 peptide: PAGIYAP
Assay: Pepscan ELISA, 100 µg/ml
Description: as §1, §2

Row | Binder | OD (absorbance)
40 | B1 | 2500 OD
41 | B2 | 64 OD
42 | B3 | 85 OD

Biological target: T1, GIYAPIA
Assay: Pepscan ELISA, 10 µg/ml
Description: as §1, §2

Row | Binder | OD (absorbance)
43 | B1 | 172 OD
44 | B2 | 177 OD
45 | B3 | 62 OD

Biological target: T2, IYAPICV
Assay: Pepscan ELISA, 10 µg/ml
Description: as §1, §2

Row | Binder | OD (absorbance)
46 | B1 | 137 OD
47 | B2 | 174 OD
48 | B3 | 58 OD

Biological target: T6, CFIRAHTPC
Assay: Pepscan ELISA, 10 µg/ml
Description: as §1, §2

Row | Binder | OD (absorbance)
49 | B1 | 188 OD
50 | B2 | 181 OD
51 | B3 | 91 OD

Biological target: T7, CRAHTPYIC
Assay: Pepscan ELISA, 10 µg/ml
Description: as §1, §2

Row | Binder | OD (absorbance)
52 | B1 | 427 OD
53 | B2 | 188 OD
54 | B3 | 48 OD

Biological target: T15, NCEPANPSEKNSPCT (linker 2-14 via 1,3‑bis(bromomethyl)‑benzene (inferred); reading uncertain)
T15 construct: 15-mer looped Pepscan peptide derived from human CD20, Cys put in at two positions
T15 peptide: Ac-NCEPANPSEKNSPCT-minicard
Assay: Pepscan ELISA, 10 µg/ml
Description: as §1, §2

Row | Binder | OD (absorbance)
55 | B1 | 159 OD
56 | B2 | 183 OD
57 | B3 | 61 OD

Biological target: T8, LKMECLNFIRCHTPY
Assay: Pepscan ELISA, 10 µg/ml
Description: as §1, §2

Row | Binder | OD (absorbance)
58 | B1 | 165 OD
59 | B2 | 160 OD
60 | B3 | 49 OD

Biological target: T16, NCYNAEPANPSEKCS (linker 2-14 via 1,3‑bis(bromomethyl)‑benzene (inferred); reading uncertain)
T16 construct: 15-mer looped Pepscan peptide derived from human CD20, Cys put in at two positions
T16 peptide: Ac-NCYNAEPANPSEKCS-minicard
Assay: Pepscan ELISA, 10 µg/ml
Description: as §1, §2

Row | Binder | OD (absorbance)
61 | B1 | 93 OD
62 | B2 | 121 OD
63 | B3 | 49 OD

Biological target: T17, YCAEPANPSEKNSCS (linker 2-14 via 1,3‑bis(bromomethyl)‑benzene (inferred); reading uncertain)
T17 construct: 15-mer looped Pepscan peptide derived from human CD20, Cys put in at two positions
T17 peptide: Ac-YCAEPANPSEKNSCS-minicard
Assay: Pepscan ELISA, 10 µg/ml
Description: as §1, §2

Row | Binder | OD (absorbance)
64 | B1 | 106 OD
65 | B2 | 188 OD
66 | B3 | 65 OD

Biological target: T18, ECANPSEKNSPSTCY (linker 2-14 via 1,3‑bis(bromomethyl)‑benzene (inferred); reading uncertain)
T18 construct: 15-mer looped Pepscan peptide derived from human CD20, Cys put in at two positions
T18 peptide: Ac-ECANPSEKNSPSTCY-minicard
Assay: Pepscan ELISA, 10 µg/ml
Description: as §1, §2

Row | Binder | OD (absorbance)
67 | B1 | 134 OD
68 | B2 | 179 OD
69 | B3 | 68 OD

Biological target: T14, PAGIYAP
Assay: Pepscan ELISA, 10 µg/ml
Description: as §1, §2

Row | Binder | OD (absorbance)
70 | B1 | 449 OD
71 | B2 | 170 OD
72 | B3 | 43 OD
